B1: HDV Ribozyme (parent)
chain: GGCCGGCAUGGUCCCAGCCUCCUCGCUGGCGCCGGCUGGGCAACAUUCCGAGGGGACCGUCCCCUCGGUAAUGGCGAAUGGGACCCA

Variants of: B1
Assay: self-cleavage, relative activity (ratio to wild type); higher = more cleavage; co-transcriptional

Variant | self-cleavage
C48A C64G | 0.786
C48A C64A | 0.867
U47G G82A | 0.59
U47G G82U | 0.123
U47G A71C | 0.959
U47C G74A | 0.233
U47G G74C | 0.222
U47G G74A | 0.435
U47C G80A | 0.215
U47C G80C | 0.138
U47A U79G | 0.895
U47C C66U | 0.725
C48A G53A | 1.05
C48A G53U | 0.915
U47C C75U | 0.0791
U47C C75G | 0
U47G C66G | 0.831
U47G C66U | 1.23
U47G G53C | 1.19
U47G G53A | 1.15
C48A C63A | 0.816
C48A A83C | 0.317
C48A A83G | 0.791
U47G C75G | 0.317

Variant | self-cleavage
C48A C58A | 0.831
C48A C58G | 1.12
U47C C63G | 0.178
U47A U69C | 0.764
U47G C64A | 0.875
U47C G73A | 0.464
U47C G73C | 0.374
U47C G73U | 0.225
C48A C75U | 0.339
C48A C75G | 0.142
C48A C75A | 0.326
U47G A87G | 1.16
U47G A87C | 1.05
U47C G52A | 0.853
U47C G52C | 0.917
U47G G68C | 0.499
U47G G68A | 0.831
U47G G68U | 1.01
U47G G76A | 1.25
U47G G76C | 0.727
U47C G67U | 0.892
U47C G67C | 0.59
U47G C58A | 1.48
C48A C61U | 0.911

Variant | self-cleavage
C48A C61G | 1.03
U47G A78U | 0.196
U47G A78C | 0.185
U47C A77U | 0.285
U47G G81U | 0.214
U47G G81A | 0.237
U47G A56C | 1.09
U47G A56U | 1.11
U47G A56G | 1.08
U47G G55C | 1.07
U47G G55A | 0.939
C48A G59C | 1.15
C48A G59U | 1.11
U47G U79G | 0.415
U47G U79A | 0.95
U47G U60C | 0.767
U47G U60G | 1.21
C48A G73C | 0.618
C48A G73U | 0.422
U47C C49G | 0.978
U47C C49U | 0.864
U47C U60G | 0.935
U47C G55C | 0.862
U47C G55A | 0.923

Variant | self-cleavage
U47C G59A | 0.954
C48A C85A | 0.717
C48A C85G | 0.867
C48A C85U | 1.16
U47C C62A | 1.06
U47C C62G | 0.415
U47C C62U | 1.16
U47G A83U | 0.525
U47G A83G | 0.8
C48A C57U | 0.76
C48A C57A | 0.978
C48A G50U | 1.17
C48A G50C | 1.11
C48A G50A | 0.969
U47C U69G | 1.02
U47C U69A | 0.762
U47C C86A | 0.806
U47C A51U | 0.831
U47C A51C | 0.776
C48A A71G | 0.791
U47G C49A | 1.09
U47A G80U | 0.172
U47G U69C | 0.727
C48A A70G | 1.11

Variant | self-cleavage
C48A A70C | 0.957
C48A C86A | 0.831
C48A C86U | 0.923
U47G G50A | 0.957
U47G G50C | 0.831
U47C C57U | 0.712
U47C A56U | 0.942
U47C A56C | 0.831
C48A G52A | 0.926
U47G C84U | 0.346
U47C C61A | 0.872
U47C C61G | 0.65
U47C C64U | 0.692
U47C U65G | 0.856
U47C U65C | 0.733
U47C A71C | 0.883
C48A G76A | 0.727
C48A G76C | 1.05
U47G G80C | 0.192
U47G G80U | 0.163
U47G G80A | 0.242
U47G C86U | 1.11
U47C A78G | 0.807
U47C A78C | 0.0898

Variant | self-cleavage
C48A C84G | 0.727
C48A G74A | 0.7
U47C G54C | 0.554
U47C G54A | 1.04
U47A G82C | 0.489
U47A U60G | 1.02
C48A A87G | 0.955
U47C A87U | 0.746
U47C A87G | 0.876
U47C A87C | 0.95
C48A C49G | 1.01
U47C G81A | 0.332
U47C G81U | 0.443
U47G C48U | 1.02
U47G C48A | 0.798
U47C G82U | 0.111
U47C G82C | 0.185
U47C G82A | 0.401
U47G G67U | 0.929
U47G G67C | 0.554
U47G G67A | 0.831
C48A G67U | 1.03
C48A G67A | 1.04
U47C C58A | 0.779

Variant | self-cleavage
U47C C58U | 0.752
U47C C58G | 0.807
C48A G55U | 0.933
C48A G55C | 1.06
C48A C62G | 0.359
U47C A70G | 1.08
U47C A70U | 0.864
U47C C85A | 0.587
U47G G59C | 1.16
U47G A77U | 0.665
U47C | 0.906
U47G | 1.09
U47G G54U | 1.07
U47G G54A | 1.18
U47G C61A | 1.2
U47G A70G | 1.01
C48A A56G | 1.2
U47G C63A | 1.06
C48A C66G | 0.831
C48A G80C | 0.169
U47C U72C | 0.712
U47G U72C | 0.554
U47G U72A | 0.831

— the RNAGym collection of RNA variant scans (doi:10.7554/elife.80360)
